Common to all, as to assay: FRET or BRET
Background: BRET reads energy transfer from a luciferase to a nearby fluorophore.

For test [1], the target named is T1, Cy3-labeled β-galactosidase (UniProt P00722 1-1024 = β-galactosidase, Cy3 fluorophore label (site not stated)).
Test [2] has as its target T2, Cy3-labeled recombinant rat hepatocyte nuclear factor 4α (rat, UniProt P22449 1-474, Cy3 fluorophore label (site not stated)).
T2 sequence (looked up): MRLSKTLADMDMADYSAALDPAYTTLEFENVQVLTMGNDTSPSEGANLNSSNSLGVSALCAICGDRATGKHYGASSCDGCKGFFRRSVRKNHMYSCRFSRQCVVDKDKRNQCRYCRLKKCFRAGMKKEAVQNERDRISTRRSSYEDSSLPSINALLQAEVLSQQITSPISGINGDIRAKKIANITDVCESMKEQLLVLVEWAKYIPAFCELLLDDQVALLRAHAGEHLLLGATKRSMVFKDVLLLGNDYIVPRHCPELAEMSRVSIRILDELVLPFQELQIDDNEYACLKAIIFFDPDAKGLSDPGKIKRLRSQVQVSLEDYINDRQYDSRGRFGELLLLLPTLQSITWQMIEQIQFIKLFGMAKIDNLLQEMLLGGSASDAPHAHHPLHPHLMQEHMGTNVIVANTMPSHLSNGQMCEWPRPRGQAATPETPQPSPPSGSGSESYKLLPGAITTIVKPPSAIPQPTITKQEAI

For test [3], the target named is T1, Cy3-labeled β-galactosidase. This is another data set of the same source.
For test [4], the target named is T2, Cy3-labeled recombinant rat hepatocyte …. This is another data set of the same source.

Like-named read-outs stand apart in the source and are kept apart here. A value given as a limit tells only on which side of the number the result lay.

T1 sequence (P00722 whole entry): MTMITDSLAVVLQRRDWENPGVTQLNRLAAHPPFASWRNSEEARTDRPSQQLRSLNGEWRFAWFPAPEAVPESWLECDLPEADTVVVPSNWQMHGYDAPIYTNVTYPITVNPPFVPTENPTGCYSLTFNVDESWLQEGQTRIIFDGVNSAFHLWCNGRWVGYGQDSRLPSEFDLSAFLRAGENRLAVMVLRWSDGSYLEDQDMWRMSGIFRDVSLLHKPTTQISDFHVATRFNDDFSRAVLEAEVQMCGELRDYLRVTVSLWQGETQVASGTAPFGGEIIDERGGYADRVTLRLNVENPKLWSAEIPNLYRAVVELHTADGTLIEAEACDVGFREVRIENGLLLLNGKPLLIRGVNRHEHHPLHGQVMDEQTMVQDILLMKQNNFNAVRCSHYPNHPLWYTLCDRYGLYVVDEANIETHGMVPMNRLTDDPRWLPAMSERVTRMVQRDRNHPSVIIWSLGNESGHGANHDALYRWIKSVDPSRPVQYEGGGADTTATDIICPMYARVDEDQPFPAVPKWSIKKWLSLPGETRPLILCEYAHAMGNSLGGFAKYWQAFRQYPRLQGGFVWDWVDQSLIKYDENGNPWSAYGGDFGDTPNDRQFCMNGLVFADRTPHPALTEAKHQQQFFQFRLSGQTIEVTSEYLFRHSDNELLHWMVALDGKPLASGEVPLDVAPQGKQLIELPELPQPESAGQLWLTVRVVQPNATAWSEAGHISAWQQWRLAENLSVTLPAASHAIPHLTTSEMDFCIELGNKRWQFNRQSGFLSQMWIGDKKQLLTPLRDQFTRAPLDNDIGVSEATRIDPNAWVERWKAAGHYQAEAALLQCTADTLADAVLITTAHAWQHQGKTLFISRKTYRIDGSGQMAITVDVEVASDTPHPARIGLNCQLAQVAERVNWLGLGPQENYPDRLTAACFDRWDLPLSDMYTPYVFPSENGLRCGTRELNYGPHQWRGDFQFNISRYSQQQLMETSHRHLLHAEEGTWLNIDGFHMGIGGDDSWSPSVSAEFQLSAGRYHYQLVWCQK

B1: Cy5-labeled recombinant rat liver-type fatty acid binding protein (natural protein, UniProt P02692 1-127, looked up)
chain: MNFSGKYQVQSQENFEPFMKAMGLPEDLIQKGKDIKGVSEIVHEGKKVKLTITYGSKVIHNEFTLGEECELETMTGEKVKAVVKMEGDNKMVTTFKGIKSVTEFNGDTITNTMTLGDIVYKRVSKRI
modifications: Cy5 fluorophore label (site not stated)
Consider B1, for which the Kd (as a rule, the free concentration of one partner at which half of the binding sites on the other are occupied at equilibrium, for simple one-to-one binding) is > 10 µM in test [1], 300 nM in test [2], > 10 µM in test [3] and 250 nM in test [4].
